Data reported in patent US20170320960A1.
Values belong to the binder of their own block, whether it stands above or below them.

Molecular target: hMFI2-ECD-His (extracellular domain of human MFI2, residues G20-C709, with Histidine tag) (human) (UniProt P08582)
Assay: SPR (BIAcore 2000): antibody captured, monomeric MFI2-His flowed, 1:1 Langmuir fit; species not given, taken as hMFI2-His

Sequence of hMFI2-ECD-His (extracellular domain of human MFI2, residues G20-C709, with Histidine tag) (human) (P08582 20-709 limits assumed, form in doubt): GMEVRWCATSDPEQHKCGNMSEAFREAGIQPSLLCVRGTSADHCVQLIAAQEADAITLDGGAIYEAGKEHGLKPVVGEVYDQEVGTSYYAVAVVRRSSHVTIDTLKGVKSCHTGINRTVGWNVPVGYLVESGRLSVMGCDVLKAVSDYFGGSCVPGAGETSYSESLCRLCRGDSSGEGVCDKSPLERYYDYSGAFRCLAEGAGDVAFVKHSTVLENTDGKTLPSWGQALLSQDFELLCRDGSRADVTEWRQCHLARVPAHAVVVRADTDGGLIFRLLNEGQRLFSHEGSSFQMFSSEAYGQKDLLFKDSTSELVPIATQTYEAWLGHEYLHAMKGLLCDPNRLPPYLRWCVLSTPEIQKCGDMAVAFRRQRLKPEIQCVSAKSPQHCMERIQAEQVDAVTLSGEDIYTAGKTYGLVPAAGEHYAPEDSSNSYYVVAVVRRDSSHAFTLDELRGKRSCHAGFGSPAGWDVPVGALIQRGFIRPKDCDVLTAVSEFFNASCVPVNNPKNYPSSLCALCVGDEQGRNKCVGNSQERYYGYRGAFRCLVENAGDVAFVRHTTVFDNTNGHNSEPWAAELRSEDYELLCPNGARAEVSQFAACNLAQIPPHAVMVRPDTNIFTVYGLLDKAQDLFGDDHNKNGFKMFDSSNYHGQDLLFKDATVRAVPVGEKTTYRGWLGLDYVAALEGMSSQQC

B1: SC57.46 (antibody, V domains shown)
VH: QVQLKESGPGLVAPSQSLSITCTVSGFSLTSYGVHWVRQPPGKGLEWLGIIWAGGTTNYNSALMSRLSIRKDNSKSQVFLKMNSLQTDDTAMYYCARDRGYDGYFDYAVDYWGQGTSVTVSS
VL: DIQMTQSPPSLSASVGETVTITCRTSENIYSYLTWYQQKQGKSPQLLVYNAKTLAEGVPSRFSGSGSGTQFSLKINSLQPEDFGSYYCQHHYGTPLTFGAGTKLELK
Kd: 4.5 nM

B2: hSC57.5 (antibody, human IgG1, kappa, V domains shown)
VH: EVQLVQSGAEVKKPGESLKISCKGSGYSFTDYYLHWVRQMPGKGLEWMGRINPYNGATSYNQIFKDQVTISADKSISTAYLQWSSLKASDTAMYYCARGGDYDFPWYWGQGTTVTVSS
VL: DIQMTQSPSSLSASVGDRVTITCKASQDVYAAVAWYQQKPGKAPKLLIYWASTRHAGVPSRFSGSGSGTDFTLTISSLQPEDFATYYCQQHYRTPWTFGQGTKVEIKR
Kd: 4.4 nM

Now those with a lower Kd, led by results:

Kd: 3.2 nM
B4: SC57.11 (antibody, V domains shown)
VH: QVQLQQSGAELMKPGASVKISCKATGYTFSNYRIEWMKQRPGHGLEWIGEILPRTGNTNYNENFKGKATFTADTSSNTAYIQLSSLTSEDSAVYYCARDDGYYGRFAYWGQGTLVTVSA
VL: DIQMTQTTSSLSASLGDRVTISCRASQDISSYLNWYQQKPDGTVKLLIYYTSRLHSGVPSRFSGSGSGTDYSLTINNLEQEDIATYFCQQGNTLPPTFGGGTKLEIK

Kd: 1.1 nM
B3: SC57.5 (antibody, V domains shown)
VH: EVQLQQSGPELVKPGASVKISCKASGYSFTDYYLHWVKQSHVKSLEWIGRINPYNGATSYNQIFKDKASLTVDKSSSTAYMDLHSLTSEDSAVYYCARGGDYDFPWYWGQGTTLTVSP
VL: DIVMTQSHKFMSTSVGDRVSITCKASQDVYAAVAWYHQKPGQSPKLLIYWASTRHAGVPDRFTGSGSGTDYTLTISSVQAEDLALYYCQQHYRTPWTFGGGTKLEIK
